The target in assay [1] is cynomolgus monkey CD200R1 on cells (cynomolgus monkey). Put plainly: flow cytometry, biotinylated antibody on cynomolgus CD8+ T cells (PBMC), streptavidin-PE; concentration not shown.
The target is the same in assay [2]. Put plainly: flow cytometry, biotinylated antibody on cynomolgus CD4+ T cells (PBMC), streptavidin-PE; concentration not shown. A general note: In flow cytometry, cells or beads pass a laser one at a time.
The target of assay [3] is human CD200R1 on cells (human) (UniProt Q8TD46). Briefly: flow cytometry, blocking: U937 cells stably expressing hu-CD200R1 incubated with the antibody, then with 55 nM huCD200-Fc-Flag, detected with anti-Flag PE (MFI).
Assay [4] shares this target. Put plainly: cell-based or functional assay.

Chain of hu-CD200-Fc (Fc fusion) (chain): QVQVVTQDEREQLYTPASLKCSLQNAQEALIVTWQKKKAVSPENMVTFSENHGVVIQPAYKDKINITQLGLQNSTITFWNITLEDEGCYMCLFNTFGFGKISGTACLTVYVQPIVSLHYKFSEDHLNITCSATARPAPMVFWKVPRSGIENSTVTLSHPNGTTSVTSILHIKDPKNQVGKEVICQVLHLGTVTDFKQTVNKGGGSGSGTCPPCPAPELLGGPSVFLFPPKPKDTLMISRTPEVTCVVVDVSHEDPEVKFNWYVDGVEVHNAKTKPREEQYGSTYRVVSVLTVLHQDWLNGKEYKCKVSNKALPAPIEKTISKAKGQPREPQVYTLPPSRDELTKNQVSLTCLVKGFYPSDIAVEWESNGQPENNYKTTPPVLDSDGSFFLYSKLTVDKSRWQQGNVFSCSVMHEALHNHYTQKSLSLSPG

As for IgG Control (antibody), the values for the Mean:Comp-FL2-A in assay [1] and in assay [2] were 411 and 403, respectively.
“OX108 (commercial anti-CD200R1 antibody)”: the Mean:Comp-FL2-A was determined as 425 in assay [1] and 566 in assay [2]. The 50% inhibitory concentration (IC50) in assay [3] came out at 2.8 nM. In assay [4], this substance returned a pDok2 induction, western blot, U937 cells expressing CD200R1 of 33 nM.
As for hu-CD200-Fc (Fc fusion), the pDok2 induction, western blot, U937 cells expressing CD200R1 in assay [4] stood at 200 nM.

One may read the IC50 as the concentration that inhibits the measured activity by half.
